From PMC3947653 (Peptides, 2013)

Assays:
[1] = cited from earlier work
animals = details: cited from earlier work
[2] = Aging of glucagon in glycine buffer at 37° C, analysed by LCMS; assay type: physicochemical

## glucagon
[1]
  aggregation at alkaline pH vs acid pH: much less prone to aggregation than glucagon prepared at acid pH
animals
  bioactivity of fibrillated glucagon given to animals: retains much of its bioactivity
[2]; 1 mg/ml in glycine buffer pH 10, 7 days at 37° C, reverse-phase LCMS
  width of main LCMS peak, glucagon aged at pH 10: 3 min
[2]; aged 7 days at 37° C, least-squares fitting of isotopic distribution of the m/z spectrum
  deamidation events after aging, pH 10 vs pH 9: more deamidation events than pH 9
[2]; unaged glucagon, reverse-phase LCMS
  width of main LCMS peak, fresh glucagon: 1 min
